A short description of this data set: Sedimentation rate / physical stability of micronized drug dispersions in HFA227 with or without chitosan-PLA nanoparticles. As for the experimental part:
Sedimentation rate of micronized insulin in HFA 227 were conducted to test the physical stability of dispersions.

Setting [1] is: pure (bare) drug particles in HFA227.

Consider insulin, for which, under setting [1], the creaming of dispersion result is given as “creaming out in seconds”. The redispersibility result reads like this: under setting [1], “not being redispersible”; (with chitosan-PLA nanoparticles, HFA227, after storage) “can be redispersed simply by hand-shaking even after several days of storage”. Further, the “physical stability of dispersion” value reads like this: (pure (bare) drug particles, 2 mg/ml in HFA227, 298K, saturation pressure) “poor stability”; (upon addition of chitosan-PLA nanoparticles (1 or 2 mg/ml), HFA227) “improved”.

(Values after patent publication US20110223216A1, “Nanoparticles and Porous Particles and Methods of Making the Same” (WAYNE STATE UNIVERSITY, priority 2008, published 2011).)
